Test results from article PMC9931771, “Surufatinib plus toripalimab in patients with advanced solid tumors: a single-arm, open-label, phase 1 trial” (Journal of Cancer Research and Clinical Oncology, 2022).

How the values were obtained:
[1] = tested on: NEN patients (Ki-67 ≥ 10%); set-up: method as in Lu et al. [2020]; settings: NEN patients (Ki-67 ≥ 10%) after failure of first line therapy; ref Lu et al. [2020]; cited from earlier work
[2] = Phase 1 trial: pharmacokinetics of surufatinib and toripalimab (non-compartmental analysis); format: in vivo, human
Text: Blood samples were collected for PK evaluation at multiple time points on Cycle 1 Day 1, Cycle 2 Day 1, and Cycle 3 Day 1 for surufatinib and toripalimab, respectively.
DLT events were based on the DLT evaluable population, including patients who received at least 1 cycle of treatment and completed all safety assessments within the DLT assessment window or discontinued early due to DLT in the dose-escalation stage. All safety analyses, progression-free survival (PFS), and overall survival (OS) statistics were based on the safety population, including patients who received at least 1 dose of any study drug. All efficacy endpoints, excluding PFS and OS, were analyzed based on the efficacy evaluable population, including all patients who received at least 1 dose of any study drug and had tumor assessment at baseline and post drug administration prior to initiation of new anti-cancer therapies. The PK analysis was based on the PK population, which included all patients who received at least one dose of the study drug, had at least one PK sample collected and analyzed, and had no protocol deviation that might affect the PK data.
Two-sided 95% confidence interval (CI) of ORR and DCR were computed using the Exact (Clopper–Pearson) method. For time-to-event variables [PFS, OS, DoR (duration of response) and TTR (time to response)], median event time as well as the corresponding 95% CI were estimated using Kaplan–Meier method. All statistical analyses were performed using SAS 9.4 software. Adverse events (AEs) were graded by NCI CTCAE (Common Terminology Criteria for Adverse Events) v4.03, and coded using the Medical Dictionary for Regulatory Activities (MedDRA) v23.1. Treatment-related AEs (TRAEs) referred to AEs related to surufatinib or toripalimab, which were judged by the investigators. PK parameters were calculated by non-compartmental analysis using Phoenix WinNonlin v8.0.

[3] = surufatinib 200 mg + toripalimab 240 mg, C1D1, N 6
[4] = surufatinib 200 mg + toripalimab 240 mg, C2D1, N 4
[5] = surufatinib 200 mg + toripalimab 240 mg, C3D1, N 3
[6] = surufatinib 250 mg + toripalimab 240 mg, C1D1, N 12
[7] = surufatinib 250 mg + toripalimab 240 mg, C2D1, N 11
[8] = surufatinib 250 mg + toripalimab 240 mg, C3D1, N 10
[9] = surufatinib 300 mg + toripalimab 240 mg, C1D1, N 12
[10] = surufatinib 300 mg + toripalimab 240 mg, C2D1, N 10
[11] = surufatinib 300 mg + toripalimab 240 mg, C3D1, N 9

In the case of toripalimab, the DCR [1] is listed as 35%, the ORR [1] is listed as 20% and the “Toripalimab accumulation ratio of AUC0-τ” value ([2]; Cycle 2 Day 1 compared to Cycle 1 Day 1, 240 mg Q3W) is listed as 1.3–1.5. The “Toripalimab exposure (AUC0-τ) across surufatinib dose levels” value ([2]; concomitant administration with surufatinib at different dose levels) was “similar”, the “Toripalimab AUC0-τ, geometric mean (CV%)” value [2, 3] was 15925 (22.8) h×µg/mL and the “Toripalimab CL, geometric mean (CV%)” value [2, 3] was 11.1 (30.8) mL/h. For the same substance, the “Toripalimab Cmax, geometric mean (CV%)” value [2, 3] was 78.1 (15.2) µg/mL, the “Toripalimab Tmax, median” value [2, 3] was 1.96 h and the “Toripalimab t1/2, median” value [2, 3] was 231 h. The “Toripalimab AUC0-τ, geometric mean (CV%)” value [2, 4] was 21512 (26.4) h×µg/mL, the “Toripalimab CL, geometric mean (CV%)” value [2, 4] was 11.2 (24.3) mL/h and the “Toripalimab Cmax, geometric mean (CV%)” value [2, 4] was 96.2 (17.9) µg/mL. The “Toripalimab Tmax, median” value [2, 4] was 2.63 h, the “Toripalimab t1/2, median” value [2, 4] was 320 h and the “Toripalimab AUC0-τ, geometric mean (CV%)” value [2, 5] was 24626 (34.9) h×µg/mL. For the same substance, the “Toripalimab CL, geometric mean (CV%)” value [2, 5] was 9.75 (29.6) mL/h, the “Toripalimab Cmax, geometric mean (CV%)” value [2, 5] was 110 (29.0) µg/mL and the “Toripalimab Tmax, median” value [2, 5] was 1.45 h. The “Toripalimab t1/2, median” value [2, 5] was 390 h, the “Toripalimab AUC0-τ, geometric mean (CV%)” value [2, 6] was 14142 (25.6) h×µg/mL and the “Toripalimab CL, geometric mean (CV%)” value [2, 6] was 13.0 (32.9) mL/h. For the same substance, the “Toripalimab Cmax, geometric mean (CV%)” value [2, 6] was 71.4 (21.6) µg/mL, the “Toripalimab Tmax, median” value [2, 6] was 1.85 h and the “Toripalimab t1/2, median” value [2, 6] was 237 h. The “Toripalimab AUC0-τ, geometric mean (CV%)” value [2, 7] was 17176 (31.5) h×µg/mL, the “Toripalimab CL, geometric mean (CV%)” value [2, 7] was 14.0 (37.2) mL/h and the “Toripalimab Cmax, geometric mean (CV%)” value [2, 7] was 83.8 (24.5) µg/mL. The “Toripalimab Tmax, median” value [2, 7] was 1.13 h, the “Toripalimab t1/2, median” value [2, 7] was 259 h and the “Toripalimab AUC0-τ, geometric mean (CV%)” value [2, 8] was 20157 (39.5) h×µg/mL. The “Toripalimab CL, geometric mean (CV%)” value [2, 8] was 11.9 (52.0) mL/h, the “Toripalimab Cmax, geometric mean (CV%)” value [2, 8] was 97.4 (25.0) µg/mL and the “Toripalimab Tmax, median” value [2, 8] was 1.87 h. For the same substance, the “Toripalimab t1/2, median” value [2, 8] was 246 h, the “Toripalimab AUC0-τ, geometric mean (CV%)” value [2, 9] was 16458 (25.0) h×µg/mL and the “Toripalimab CL, geometric mean (CV%)” value [2, 9] was 11.0 (22.1) mL/h. For the same substance, the “Toripalimab Cmax, geometric mean (CV%)” value [2, 9] was 81.2 (24.5) µg/mL, the “Toripalimab Tmax, median” value [2, 9] was 1.12 h and the “Toripalimab t1/2, median” value [2, 9] was 234 h. For the same substance, the “Toripalimab AUC0-τ, geometric mean (CV%)” value [2, 10] was 20660 (33.7) h×µg/mL, the “Toripalimab CL, geometric mean (CV%)” value [2, 10] was 11.6 (27.6) mL/h and the “Toripalimab Cmax, geometric mean (CV%)” value [2, 10] was 98.1 (27.5) µg/mL. For the same substance, the “Toripalimab Tmax, median” value [2, 10] was 1.26 h, the “Toripalimab t1/2, median” value [2, 10] was 246 h and the “Toripalimab AUC0-τ, geometric mean (CV%)” value [2, 11] was 20063 (46.6) h×µg/mL. For the same substance, the “Toripalimab CL, geometric mean (CV%)” value [2, 11] was 12.0 (35.8) mL/h, the “Toripalimab Cmax, geometric mean (CV%)” value [2, 11] was 103 (33.2) µg/mL and the “Toripalimab Tmax, median” value [2, 11] was 1.17 h. For the same substance, the “Toripalimab t1/2, median” value [2, 11] was 241 h.
